In patent US7052898B2, “Thermostable isomerase and use hereof, in particular for producing tagatose” (Bioneer A/S, priority 2001, dated 2006):
Where two headings read alike, the source gives them in different places.

Experiments:
[1] = cited from earlier work
[2] = test system: L-arabinose isomerase from T. mathranii; assay: Metal ion requirement: reactivation of EDTA-dialysed enzyme; format: biochemical, Thermoanaerobacter mathranii; settings: enzyme previously dialysed against 5 mM EDTA, metal salt added
Protocol: (§1) Enzyme sample, 10-50 μl, was mixed with 950 μl of assay reagent and incubated at 65° C. for 60 min.

[3] = test system: Escherichia coli L-arabinose isomerase; settings: read-out: Km for L-arabinose; Reference 3: Patrick and Lee (1968); cited from earlier work
[4] = test system: Mycobacterium smegmatis L-arabinose isomerase; settings: read-out: Km for L-arabinose; Reference 6: J. Bacteriol. 133: 413-414 (1978); cited from earlier work
[5] = test system: Lactobacillus gayonii L-arabinose isomerase; settings: read-out: Km for L-arabinose; Reference 5: Nakamatu and Yamanaka (1969); cited from earlier work
[6] = test system: Lactobacillus plantarum L-arabinose isomerase; settings: read-out: Km for L-arabinose; Reference 4: Heath et al. (1958); cited from earlier work
[7] = test system: Aerobacter aerogenes L-arabinose isomerase; settings: read-out: Km for L-arabinose; Reference 1: Yamanaka and Wood (1966); cited from earlier work
[8] = substrate: OC1OC[C@H](O)[C@H](O)[C@H]1O; assay: purified protein, by the assay type; settings: other: apparent Km; T. mathranii enzyme produced in E. coli; pH 6.9; 65.0 °C
[9] = Substrate specificity: D-fucose colour response relative to L-arabinose; format: biochemical; settings: 0.5 M D-fucose, cysteine-carbazol-sulfuric acid method
Protocol: as §1
(§2) The obtained concentrations of the ketoses L-ribulose, D-tagatose or D-fuculose, respectively, were determined by the cysteine-carbazol-sulfuric acid method (Dische, Z. and Borenfreund, E. (1951) J. Biol. Chem. 192: 583-587). Samples were incubated at room temperature for 60 min and the absorbance at 560 nm was measured in a microplate reader. Standard curves showing the colour response of 0-5 mM ketose were made with D-tagatose and D-ribulose, since L-ribulose was not commercially available. (No standard curve was obtained for D-fuculose which was not commercially available.)

[10] = Substrate specificity: other aldo-hexoses, aldo-pentoses and deoxy-sugar; format: biochemical
Protocol: as §1, §2

[11] = Bioconversion of D-galactose to D-tagatose with free enzyme; format: biochemical; settings: 65° C.
Protocol: as §2
Control samples without enzyme were treated similarly. Periodically, samples were taken and the concentration of D-tagatose was determined by the cystein-carbazol-sulfuric acid method as described above. The results are shown in Table 2.2A (30% D-galactose) and 2.2B (60% D-galactose).

[12] = Substrate specificity: D-galactose activity relative to L-arabinose activity; format: biochemical; settings: molar ratio of keto-sugar, substrate 0.5 M, pH 6.9, 65° C.
Protocol: as §1, §2
The ratio was calculated from the cysteine-carbazol-sulfuric acid colour responses and the standard curves generated with ribulose and tagatose, respectively.

[13] = Temperature dependence, D-galactose assay; format: biochemical; settings: temperature range of about 60-75° C.
Protocol: as §1, §2

[14] = pH dependence, D-galactose assay; format: biochemical; settings: D-galactose assays at pH 4, 5, 6, 7, 8 and 9
Protocol: as §1, §2
The buffer used for these assays was a mixture of 25 mM acetic acid, 25 mM 2-[N-morpholino]ethanesulfonic acid (MES), 5 mM MnCl2, and 25 mM tris[hydroxymethyl]-aminomethane (TRIS), which was titrated with HCl or NaOH.

[15] = end-product inhibition; cited from earlier work
[16] = initial D-galactose 30% (1.67 M), pH 6.9, 0 h
[17] = initial D-galactose 30% (1.67 M), pH 6.9, 24 h
[18] = initial D-galactose 30% (1.67 M), pH 6.9, 48 h
[19] = initial D-galactose 30% (1.67 M), pH 6.9, 72 h
[20] = initial D-galactose 60% (3.33 M), pH 6.9, 0 h
[21] = initial D-galactose 60% (3.33 M), pH 6.9, 24 h
[22] = initial D-galactose 60% (3.33 M), pH 6.9, 48 h
[23] = initial D-galactose 60% (3.33 M), pH 6.9, 72 h

Lactobacillus plantarum
amount of ketose at equilibrium ([1]; 10° C.): 10%
amount of ketose at equilibrium ([1]; 25° C.): 14%
amount of ketose at equilibrium ([1]; 53° C.): 16%

[Cl][Mn][Cl] [MnCl2]
restored L-arabinose isomerase activity [2]: 100%

O=S(=O)([O-])[O-].[Fe+2] [FeSO4]
restored L-arabinose isomerase activity [2]: 76%

OC1OC[C@H](O)[C@H](O)[C@H]1O (stereo partly drawn) [L-arabinose]
Km [3]: 60 mM
Km [4]: ~30 mM
Km [5]: 55 mM
Km [6]: 28 mM
Km [7]: 33 mM

B1: Thermoanaerobacter mathranii DSMZ 11426 L-arabinose isomerase (AraA), wild type, SEQ ID NO:2, produced in E. coli (Thermoanaerobacter mathranii subsp. … (protein)
chain: MQTKKKPQIGFLGIMQELYDDMLPGITERQEKYAREVIEQLQDVADFHFPKAAKNRQDIEHIVKEFNEKDLDGIMIVMLTYGPATNIVNALRNNKLPIMLANIQPVPTVTEDWDMGDLTYNQGVHGAQDTANAILRMGIKCPIITEEWHSEEFKKFVGDWAKAVQTIKALRNMKIAQFGRMHGMYDILGDDAAFTRKIGPQINQEYIGEVYRYMETATEEEINAVIEENRKNFYIDPNLSEESHRYAARLQIGFKKFLINKGYDGFTAHFDVFKGDGRFKQIPMMAASNLMAEGYGYAAEGDAVTASLVAAGHVLIGDAHFTEMYAMDFKRNSILMSHMGEGNWKIARKDRPIKLIDRELGIGKLDNPPTIVFMAQPGPATLVSLVSLEGERYRLVVSKGEILDTEEAKYIEMPYFHFRPSTGVKACLDGWLTNGGTHHECLNLGDNTRRWKILCNLLDIEYVEV
Km [8]: 80 mM and ˜80 mM

B2: L-arabinose isomerase from T. mathranii: L-arabinose isomerase (araA gene product, 465 amino acid residues) of Thermoanaerobacter mathranii DSMZ 11426 produced in E. coli; used as cell extract (protein)
chain: B1 chain
modifications: Thermoanaerobacter matrahnii, araA sequence
notes: used as cell extract
colour response with D-fucose as percent of the response with L-arabinose [9]: 46%
enzyme activity with D-arabinose ([10]; substrate D-arabinose): No significant enzyme activity
enzyme activity with D-glucose ([10]; substrate D-glucose): No significant enzyme activity
enzyme activity with D-mannose ([10]; substrate D-mannose): No significant enzyme activity
enzyme activity with D-ribose ([10]; substrate D-ribose): No significant enzyme activity
enzyme activity with D-xylose ([10]; substrate D-xylose): No significant enzyme activity
enzyme activity with L-fucose ([10]; substrate L-fucose): No significant enzyme activity
enzyme activity with L-ribose ([10]; substrate L-ribose): No significant enzyme activity
Conc. of D-tagatose [11, 16]: 0 mM
Percent bioconversion [11, 16]: 0
Conc. of D-tagatose [11, 17]: 427 mM
Percent bioconversion [11, 17]: 25
Conc. of D-tagatose [11, 18]: 450 mM
Percent bioconversion [11, 18]: 26
Conc. of D-tagatose [11, 19]: 422 mM
Percent bioconversion [11, 19]: 25
Conc. of D-tagatose [11, 20]: 0 mM
Percent bioconversion [11, 20]: 0
Conc. of D-tagatose [11, 21]: 462 mM
Percent bioconversion [11, 21]: 14
Conc. of D-tagatose [11, 22]: 542 mM
Percent bioconversion [11, 22]: 16
Conc. of D-tagatose [11, 23]: 622 mM
Percent bioconversion [11, 23]: 19
D-galactose activity as percent of the L-arabinose activity [12]: 21%
share of the maximum activity retained [13]: ≥ 70%
pH of highest activity [14]: 8

B3: β-glycosidase from Sulfolobus solfataricus: extremely thermostable β-glycosidase from the thermoacidophilic archaeon Sulfolobus solfataricus, used as lactase (protein, UniProt P22498 1-489, looked up)
Beta-galactosidase: MYSFPNSFRFGWSQAGFQSEMGTPGSEDPNTDWYKWVHDPENMAAGLVSGDLPENGPGYWGNYKTFHDNAQKMGLKIARLNVEWSRIFPNPLPRPQNFDESKQDVTEVEINENELKRLDEYANKDALNHYREIFKDLKSRGLYFILNMYHWPLPLWLHDPIRVRRGDFTGPSGWLSTRTVYEFARFSAYIAWKFDDLVDEYSTMNEPNVVGGLGYVGVKSGFPPGYLSFELSRRAMYNIIQAHARAYDGIKSVSKKPVGIIYANSSFQPLTDKDMEAVEMAENDNRWWFFDAIIRGEITRGNEKIVRDDLKGRLDWIGVNYYTRTVVKRTEKGYVSLGGYGHGCERNSVSLAGLPTSDFGWEFFPEGLYDVLTKYWNRYHLYMYVTENGIADDADYQRPYYLVSHVYQVHRAINSGADVRGYLHWSLADNYEWASGFSMRFGLLKVDYNTKRLYWRPSALVYREIATNGAITDEIEHLNSVPPVKPLRH
inhibition by galactose [15]: not to be inhibited
inhibition by glucose [15]: only moderately inhibited
